Several values for one entry are separate records, joined by “and”; a condition that tells them apart may be missing. Identical values can stand only once.

We go through six molecules from patent US20250197490A1 (HBM ALPHA THERAPEUTICS, published 2025).

For test [1], the target named is T1, biotinylated CRH (human and mouse, UniProt P01143 145-185 (rat entry), not fully specified; biotin; which end is not stated for the result (NT-biotin and CT-biotin forms were used)).
T1 construct: also called biotin-CRH; CRH (NT biotin)
T1 peptide: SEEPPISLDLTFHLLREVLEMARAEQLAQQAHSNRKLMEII
In words: CRH ELISA, compared with PR006669. Here is the method:
Streptavidin (Thermo, Cat: 21125) was diluted in PBS to a concentration of 2 μg/ml. 100 μl of diluted streptavidin was added per well to ELISA microplates, and the plates were incubated overnight at 4° C. […] Subsequently, plates were washed and incubated with HRP-conjugated goat anti-human IgG (H+L) antibody (Jackson, Cat: 109-035-088) at 37° C. for 1 hour. 100 μL of 3,3′,5,5′-tetramethylbenzidine (TMB) substrate (Biopanda, Cat: TMB-S-003) was added, and the plates were incubated at room temperature for 15 minutes. 100 μL of ELISA stopping solution (Solarbio, Cat #: C1058) was added to terminate the reaction, and the optical density at 450 nm (OD450 nm) was determined by an ELISA plate reader (Molecular Devices, Spectra max 384 plus).

In test [2] the target is T1, biotinylated CRH. In words: Octet BLI, biotinylated CRH on SA sensors.
For test [3], the target named is T1, biotinylated CRH. Put plainly: ELISA, CRH (NT biotin).
Test [4] addresses T1, biotinylated CRH. In words: ELISA, CRH (CT biotin). A general note: An ELISA detects its analyte on a solid surface through an enzyme-linked reagent.
Test [5] concerns the target T1, biotinylated CRH. In words: Octet in-tandem competition on captured CRH; row = 1st mAb; competitor (2nd mAb) PR005660. As for the experimental part: (§1) SA sensors (Fortebio, Cat #18-5019) were hydrated in running buffer for 10 mins.
(In general: BLI is a label-free optical method that tracks binding on a fibre tip over time.)

The target of test [6] is T1, biotinylated CRH. In words: Octet in-tandem competition on captured CRH; row = 1st mAb; competitor (2nd mAb) PR006669. Here is the method:
as §1

For test [7], the target named is T1, biotinylated CRH. Put plainly: Octet in-tandem competition on captured CRH; row = 1st mAb; competitor (2nd mAb) PR302341-34. Here is the method: as §1
In test [8] the target is T1, biotinylated CRH. Put plainly: Octet in-tandem competition on captured CRH; row = 1st mAb; competitor (2nd mAb) PR302334. Here is the method: as §1
The target in test [9] is T1, biotinylated CRH. In words: Octet in-tandem competition on captured CRH; row = 1st mAb; competitor (2nd mAb) PR301777. As for the experimental part:
as §1

Test [10] concerns the target T1, biotinylated CRH. Put plainly: Octet in-tandem competition on captured CRH; row = 1st mAb; competitor (2nd mAb) PR302309-8. Here is the method:
as §1

Test [11] deals with T1, biotinylated CRH. In words: Octet in-tandem competition on captured CRH; row = 1st mAb; competitor (2nd mAb) PR303394. As for the experimental part: as §1
Test [12] deals with T2, corticotropin-releasing hormone (CRH) peptide (human and mouse, UniProt P01143 145-185 (rat entry), not fully specified).
T2 peptide: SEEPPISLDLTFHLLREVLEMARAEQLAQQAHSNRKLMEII
In words: cell-based or functional assay.

B1: PR006745 (antibody, human IgG1, kappa, V domains shown)
VH: EVQLVESGGGLVQPGGSLRLSCAASGFTFSDNWMSWVRQAPGKGLEWVANIKQDASENYYVDSVKGRFTISRDNAKNSLYLQMNSLRAEDTAVYYCSRGLALWGWGQGTLVTVSS
VL: DIVMTHSPLSLPVTPGDPASISCRSSQSLLHSTGYNYLDWYLQKPGQSPQLLIYLGSNRASGVPDRFSGSGSGTDFTLKFIRVEAEDVGVYYCMQALQTPYTFGQGTKLEIKR
As to B1, the binding result in test [1] is “binds”.

B2: PR006746 (antibody, human IgG1, kappa, V domains shown)
VH: EVQLVESGGGLVQPGGSLRLSCAASGFTFSDNWMSWVRQAPGKGLEWVANIKQDSSENYYVDSVKGRFTISRDNAKNSLYLQMNSLRAEDTAVYYCSRGLALWGWGQGTLVTVSS
VL: DIVMTHSPLSLPVTPGDPASISCRSSQSLLHSTGYNYLDWYLQKPGQSPQLLIYLGSNRASGVPDRFSGSGSGTDFTLKFIRVEAEDVGVYYCMQALQTPYTFGQGTKLEIKR
As for B2, the binding result in [1] is “binds”.

B3: PR006143 (antibody, human IgG1, kappa, V domains shown)
VH: EVQLVESGGVLVQPGGSLRLSCAASGFTFSSYWMTWVRQAPGKGLEWVANIKQEGSEKYYVDSVKGRFTISRDNAKNSLFLQMNSLRAEDTAVYYCARTLIFDYWGQGTLVTVSS
VL: DIVMTQSPLSLPVTPGEPASISCRSSQSLLHSTGYHSLEWYLQKPGQSPQLLIYLGSNRASGVPDRFSGSGSGTDFTLKISRVEAEDVGIYYCMQTLQTPITFGQGTRLEIKR
In the case of B3, in test [2], the binding result is “binds”.

B4: PR006145 (antibody, human IgG1, kappa, V domains shown)
VH: EVQLVESGGVLVQPGGSLRLSCAASGFTFSSYWMTWVRQAPGKGLEWVANIKQEGSEKYYVDSVKGRFTISRDNAKNSLFLQMNSLRAEDTAVYYCARTLIFDYWGQGTLVTVSS
VL: DIVMTQSPLSLPVTPGEPASISCRSSQSLLHSTGYSSLEWYLQKPGQSPQLLIYLGSNRASGVPDRFSGSGSGTDFTLKISRVEAEDVGIYYCMQTLQTPITFGQGTRLEIKR
Turning to B4, in test [2], the binding result is “binds”.

B5: PR301306 (antibody, human IgG1, kappa, V domains shown)
VH: EVKLEESGGGLVQPGGSMKLSCVASGFTFSNYWMNWVRQSPEKGLEWVAEIRLKSNNYATLYAESVKGRFTISRDDSKSSVYLQMNNLRAEDTGIYYCTRGTLVYWGQGTLVTVSA
VL: DIVLTQSPASLAVSLGQRATISCRASQSVSTSDYNYMHWYQQKPGQPPKLLIKYASNLESGVPARFSGSGSGTDFTLNIHPVEEEDTATYYCQHSWEIPYTFGGGTKLEIKR
Take B5: the figures for the “EC50 (read off the curve)” value in test [3] and in test [4] were around 100 pM and around 40 pM, respectively.

B6: PR302334 (antibody, human IgG1, kappa, V domains shown)
VH: EVKLVESGGGLVKPGGSLKLSCAASGFTFSTYAMSWVRQTPEKRLEWVASIRSGGTTYYPDSVKGRFTISRDNARNILYLQMSSLRSEDTAIYYCTRGIDWGQGTLVTVSA
VL: NIVMTQTPKFLLVSAGDRITITCKASQSVNNDVAWYQQKPGQSPKLLIYYASNRYTGVPDRFTGSGYGTDFTFTISTVQAEDLAVYFCQQDYSSWTFGGGTNLEIKR
As to B6, the “% Inhibition” value in test [5] came out at 92%; in test [6], 93%; in test [7], 88%; in test [8], 95%; in test [9], 90%; in [10], 91%. For the same molecule, the “% Inhibition” value in test [11] came out at 89%. Further, the “hCRHR1-Luc 0.5 nM CRH IC50” value in test [12] is 260 pM and 644 pM.

Usually EC50 (read off the curve) stands for the concentration giving half of the maximal effect. A high value points to a less potent agent. A word on the % Inhibition: it is the percentage by which the read-out fell short of the control. Lower therefore signals little suppression.
